Values quoted from earlier work, collected in article PMC4340704.

Target: Cys106 (UniProt position 106, LIAAICAGPTA)
Conditions: reduced Cys106 thiol/thiolate implied; otherwise not stated

Substance: DJ-1 (Parkinson disease protein 7) (Homo sapiens)
- pKa: 5.4
